Our source for the Soluble dry matter yield (%) values is US20180263259A1.

For the test, the target named is ground chicken feathers (keratin).

As for FoodPro® PXT (enzyme), the Soluble dry matter yield (%) came to 48.3%.
